{
  "source": "patent US20230129812A1",
  "about": "“COMPOSITIONS AND METHODS FOR TREATING PULMONARY HYPERTENSION” (Acceleron Pharma Inc., priority 2020, published 2023)",
  "key": {"GDF8": {"biological_target": "T1, GDF8 (Homo sapiens, UniProt O14793)", "T1 sequence (O14793 267-375)": "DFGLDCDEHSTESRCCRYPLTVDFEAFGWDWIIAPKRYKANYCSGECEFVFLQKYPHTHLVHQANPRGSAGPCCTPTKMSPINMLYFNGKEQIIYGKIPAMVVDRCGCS", "assay": "A-204 reporter gene assay, pGL3(CAGA)12 luciferase", "assay_type": "cell-based", "source_text": "An A-204 reporter gene assay was used to evaluate the effects of ActRIIB-Fc proteins and ActRIIB variant Fc fusion polypeptides on signaling by GDF-11 and activin A. Cell line: human rhabdomyosarcoma (derived from muscle). Reporter vector: pGL3(CAGA)12 (described in Dennler et al, 1998, EMBO 17: 3091-3100). The CAGA12 motif is present in TGF-beta responsive genes (e.g., PAI-1 gene), so this vector is of general use for factors signaling through SMADs.\nDay 1: Split A-204 cells into 48-well plate.\nDay 2: A-204 cells transfected with 10 ug pGL3(CAGA)12 or pGL3(CAGA)12(10 ug)+pRLCMV (1 pg) and Fugene.\nDay 3: Add factors (diluted into medium+0.1% BSA). Inhibitors need to be preincubated with factors for 1 hr before adding to cells. Six hrs later, cells were rinsed with PBS and lysed.\nThis is followed by a luciferase assay.\nAs described below, ActRIIB variants were also tested in this assay.\nIn addition, an A-204 Reporter Gene Assay was used to evaluate the effects of ALK4-Fc:ActRIIB-Fc heterodimer and ActRIIB-Fc:ActRIIB-Fc homodimer on signaling by activin A, activin B, GDF11, GDF8, BMP10, and BMP9. Cell line: Human Rhabdomyosarcoma (derived from muscle). Reporter vector: pGL3(CAGA)12 (as described in Dennler et al, 1998, EMBO 17: 3091-3100). The CAGA12 motif is present in TGFβ responsive genes (PAI-1 gene), so this vector is of general use for factors signaling through Smads. An exemplary A-204 Reporter Gene Assay is outlined below. • Day 1: Split A-204 cells into 48-well plate. • Day 2: A-204 cells transfected with 10 ug pGL3(CAGA)12 or pGL3(CAGA)12(10 ug)+pRLCMV (1 ug) and Fugene. • Day 3: Add factors (diluted into medium+0.1% BSA). Inhibitors need to be pre-incubated with Factors for about one hr before adding to cells. About six hrs later, cells are rinsed with PBS and then lysed.\nFollowing the above steps, a Luciferase assay was performed."}, "BMP6": {"biological_target": "T2, BMP6 (Homo sapiens, UniProt P22004)", "T2 sequence (P22004 375-513)": "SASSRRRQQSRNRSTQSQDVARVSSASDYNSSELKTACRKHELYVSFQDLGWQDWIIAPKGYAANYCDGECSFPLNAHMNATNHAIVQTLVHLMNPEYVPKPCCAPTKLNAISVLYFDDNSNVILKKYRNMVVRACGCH", "assay": "Biacore ligand binding profile, ALK4-Fc:ActRIIB-Fc heterodimer vs homodimers, anti-Fc capture (Example 13, Table 13)"}},
  "data": [
    {"molecule": "ALK4-Fc:ActRIIB-Fc heterodimer: heteromeric complex of extracellular domains of human ActRIIB and human ALK4, each separately fused to an Fc domain with a linker (protein) chain 1: GRGEAETRECIYYNANWELERTNQSGLERCEGEQDKRLHCYASWRNSSGTIELVKKGCWLDDFNCYDRQECVATEENPQVYFCCCEGNFCNERFTHLPEAGGPEVTYEPPPTAPTGGGTHTCPPCPAPELLGGPSVFLFPPKPKDTLMISRTPEVTCVVVDVSHEDPEVKFNWYVDGVEVHNAKTKPREEQYNSTYRVVSVLTVLHQDWLNGKEYKCKVSNKALPAPIEKTISKAKGQPREPQVYTLPPSRKEMTKNQVSLTCLVKGFYPSDIAVEWESNGQPENNYKTTPPVLKSDGSFFLYSKLTVDKSRWQQGNVFSCSVMHEALHNHYTQKSLSLSPGK chain 2: SGPRGVQALLCACTSCLQANYTCETDGACMVSIFNLDGMEHHVRTCIPKVELVPAGKPFYCLSSEDLRNTHCCYTDYCNRIDLRVPSGHLKEPEHPSMWGPVETGGGTHTCPPCPAPELLGGPSVFLFPPKPKDTLMISRTPEVTCVVVDVSHEDPEVKFNWYVDGVEVHNAKTKPREEQYNSTYRVVSVLTVLHQDWLNGKEYKCKVSNKALPAPIEKTISKAKGQPREPQVYTLPPSREEMTKNQVSLTCLVKGFYPSDIAVEWESNGQPENNYDTTPPVLDSDGSFFLYSDLTVDKSRWQQGNVFSCSVMHEALHNHYTQKSLSLSPG", "values": [
      {"measurement": "inhibition of GDF8 signaling", "setting": "GDF8", "result": "potent inhibitors"},
      {"measurement": "BMP6 binding", "setting": "BMP6; Example 13", "result": "intermediate-level binding"},
      {"measurement": "ka", "setting": "BMP6; ligand BMP6, Table 13", "result": "2e+06", "unit": "M⁻¹ s⁻¹"},
      {"measurement": "kd", "setting": "BMP6; ligand BMP6, Table 13", "result": 0.0055, "unit": "s⁻¹"}
    ]}
  ]
}
